Results as given in patent US20240156980A1 (Molecular Partners, published 2024).
Residue numbers refer to the chain shown, from its start.

Experiments:
[1] = target: T1, human CD3 on T cells (human, UniProt P07766 23-207; P09693 23-182; P04234 22-171); assay: cell-based or functional assay
[2] = target: T2, human EGFR on tumor cells (human, UniProt P00533 25-1210); assay: cell-based or functional assay
[3] = target: T3, CD3-specific binding domain C7v14; assay: SPR validation of down-tuned binders
T3 construct: Used as analyte in SPR; also called hC22_88B02v14
T3 chain: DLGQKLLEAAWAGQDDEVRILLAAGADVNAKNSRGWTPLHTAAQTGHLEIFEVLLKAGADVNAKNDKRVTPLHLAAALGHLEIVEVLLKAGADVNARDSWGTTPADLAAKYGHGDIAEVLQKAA

[4] = target: T2, human EGFR on tumor cells; assay: flow cytometry on HCT 116 tumor cells, detection with anti-DARPin antibodies
Procedure: (§1) The determination of CD3 binding was performed with human CD3 on Jurkat cells, and binding to hEGFR on cells with HCT116 tumor cells, using Flow Cytometer Attune Nxt. A titration of prodrug DARPin molecules was incubated with 200′000 cells per well (for both Jurkat and HCT116 cells) for 30 min at 4° C. After washing, CD3 binding of DARPin® molecule was detected by 1:1000-diluted anti-DARPin® Antibody-Mix (1 h incubation at 4° C.) with the corresponding secondary antibody anti-rabbit IgG Alexa Fluor 488 (30 min incubation at 4° C.), which was added after washing off excess anti-DARPin Antibodies. Cells were subsequently washed and stained for livedead (aqua, 1:1000, thermofisher) and resuspended in Cytofix fixation buffer (BD Biosciences). Median of mean fluorescence intensities of Alexa Fluor 488 binding on live cells were measured by Flow Cytometry and data was plotted using GraphPad Prism 8.

[5] = target: T1, human CD3 on T cells; assay: flow cytometry on Jurkat cells, detection with anti-DARPin antibodies and anti-rabbit IgG Alexa Fluor 488, MFI [column T-cell binding]
Procedure: as §1

[6] = target: T4, recombinant human EGFR extracellular domain (human, UniProt P00533 25-645); assay: SPR (ProteOn XPR36); biotinylated DARPin captured on NLC chip, EGFR ECD as analyte; 1:1 Langmuir fit
T4 construct: range 25-645; The range L25-S645 is stated for the ECD used in the selection; the SPR analyte is printed as hEGFR / recombinant human EGFR ECD; also called hEGFR; human EGFR ECD
Procedure: (§2) All SPR measurements were performed using a ProteOn™ XPR36 Protein Interaction Array System (Bio-Rad). […] PBS pH7.4 containing 0.005% Tween-20 (Sigma) was used as flow buffer, which was additionally supplemented with 1 mg/ml BSA in the case of mEGFR target. A three-fold dilution series from 0.74 nM to 60 nM of hEGFR or mEGFR was injected for 180 s at a flow rate of 100 ul/min, and dissociation was recorded for 1800 s. The captured DARPin molecules were regenerated by a single pulse of 10 mM glycine-HCl, pH 2.5+1M NaCl. The data was double-referenced using the interspots (surface reference) and a blank injection (buffer reference). Each individual dilution-set was fitted to the Langmuir-1:1-model.

[7] = target: T5, recombinant mouse EGFR extracellular domain (mouse, UniProt Q01279 25-647); assay: as above
T5 construct: extracellular domain; Bought protein; also called mEGFR; mouse EGFR ECD
Procedure: as §2

T1 sequence (P07766 23-207, chain 1 of 3): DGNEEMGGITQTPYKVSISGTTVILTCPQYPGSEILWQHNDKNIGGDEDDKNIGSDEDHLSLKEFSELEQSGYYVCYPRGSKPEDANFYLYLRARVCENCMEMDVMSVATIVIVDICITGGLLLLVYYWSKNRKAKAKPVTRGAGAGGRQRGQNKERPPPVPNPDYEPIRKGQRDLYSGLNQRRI
T1 sequence (P09693 23-182, chain 2 of 3): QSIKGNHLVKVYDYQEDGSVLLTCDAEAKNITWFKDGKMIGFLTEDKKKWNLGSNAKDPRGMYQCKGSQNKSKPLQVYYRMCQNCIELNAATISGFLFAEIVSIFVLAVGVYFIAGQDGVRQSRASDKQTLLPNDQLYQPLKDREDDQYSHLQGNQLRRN
T1 sequence (P04234 22-171, chain 3 of 3): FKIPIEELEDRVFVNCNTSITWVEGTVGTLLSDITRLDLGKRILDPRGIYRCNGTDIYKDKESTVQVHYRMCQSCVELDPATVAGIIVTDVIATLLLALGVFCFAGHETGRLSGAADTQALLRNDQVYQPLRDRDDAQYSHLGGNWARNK

B1: CD3-PDD NCL EGFR-C7v119-[NCL1]-06E05v05-6His (designed binder)
chain: MGSDLGYKLLRAAFHGQDDEVRILLAAGADVNAKDLIGQTPLHNAAWVGHLEIVEVLLKAGADVNAKDYYGNTPLHLAAHDGHLEIVEVLLKAGADVNAQDTWGETPADLATNAGHEDIAEVLQKAAGSPTPTPTTPTPTPTTPTPTPTGSDLGQKLLEAAWAGQDDEVRELLKAGADVNAKNSRGWTPLHTAAQTGHLEIFEVLLKAGADVNAKDDKGVTPLHLAAALGHLEIVEVLLKAGADVNAQDSWGTTPADLAAKYGHEDIAEVLQKAASGPTPTPTTPTPTPTTPTPTPTGSDLGKKLLQAARAGQLDEVRELLKAGADVNAKDAKGLTPLHLAAYHGHLEIVEVLLKAGADVNAKDVYGWTPLHIAAASGHLEIVEVLLKAGADVNAKDALGWTPLHLAASHGHLEIVEVLLKAGADVNAQDKSGKTPADLAARAGHQDIAEVLQKAAGSHHHHHH
tumor cell killing EC50 (LDH release), HCT 116 tumor cells and pan T-cells [1]: 0.0821 nM

B2: CD3-PDD NCL EGFR-C7v122-[NCL1]-06E05v05-6His (designed binder)
chain: B1 chain with D216N, G219R, Q248R, E265Q
tumor cell killing EC50 (LDH release), HCT 116 tumor cells and pan T-cells [1]: > 0.1 nM

B3: Active TCE EGFR-C7v14-6His (designed binder)
chain: MGSDLGYKLLRAAFHGQDDEVRILLAAGADVNAKDLIGQTPLHNAAWVGHLEIVEVLLKAGADVNAKDYYGNTPLHLAAHDGHLEIVEVLLKAGADVNAQDTWGETPADLATNAGHEDIAEVLQKAAGSPTPTPTTPTPTPTTPTPTPTGSDLGQKLLEAAWAGQDDEVRILLAAGADVNAKNSRGWTPLHTAAQTGHLEIFEVLLKAGADVNAKNDKRVTPLHLAAALGHLEIVEVLLKAGADVNARDSWGTTPADLAAKYGHGDIAEVLQKAAGSHHHHHH
T-cell activation EC50 (CD25 on CD8+ T cells), EGFR+ HCT 116 tumor cells and pan T-cells [2]: 0.0016 nM
T-cell activation EC50 (CD25 on CD8+ T cells), EGFR+++ A431 tumor cells and pan T-cells [2]: 0.0037 nM

B4: Binder #5 (designed binder)
chain: MRGSHHHHHHGSDLGKKLLQAARAGQLDEVRELLKAGADVNAKDAKGLTPLHLAAYHGHLEIVEVLLKAGADVNAKDVYGWTPLHIAAASGHLEIVEVLLKAGADVNAKDWLGITPLHLAASHGHLEIVEVLLKAGADVNAQDKSGKTPADLAARAGHQDIAEVLQKAA
notes: N-terminal His-tag; also called 06E05v30
binding result [3]: binds

B5: Binder #6 (designed binder)
chain: B4 chain with Y79A
notes: N-terminal His-tag; also called 06E05v31
binding result [3]: binds

B6: Binder #7 (designed binder)
chain: B4 chain with W111A
notes: N-terminal His-tag; also called 06E05v32
binding result [3]: binds

B7: Binder #8 (designed binder)
chain: B4 chain with H123A
notes: N-terminal His-tag; also called 06E05v33
binding result [3]: binds

B8: Binder #9 (designed binder)
chain: B4 chain with I114A
notes: N-terminal His-tag; also called 06E05v34
binding result [3]: binds

B9: Binder #10 (designed binder)
chain: B4 chain with Y79A, I114A
notes: N-terminal His-tag; also called 06E05v35
binding result [3]: binds

B10: Binder #11 (designed binder)
chain: B4 chain with W111A, I114A
notes: N-terminal His-tag; also called 06E05v36
binding result [3]: binds

B11: Binder #12 (designed binder)
chain: B4 chain with I114A, H123A
notes: N-terminal His-tag; also called 06E05v37
binding result [3]: binds

B12: CD3-PDD CL EGFR-C7v119-[Linker#2]-06E05v07-6His (designed binder)
chain: MGSDLGYKLLRAAFHGQDDEVRILLAAGADVNAKDLIGQTPLHNAAWVGHLEIVEVLLKAGADVNAKDYYGNTPLHLAAHDGHLEIVEVLLKAGADVNAQDTWGETPADLATNAGHEDIAEVLQKAAGSPTPTPTTPTPTPTTPTPTPTGSDLGQKLLEAAWAGQDDEVRELLKAGADVNAKNSRGWTPLHTAAQTGHLEIFEVLLKAGADVNAKDDKGVTPLHLAAALGHLEIVEVLLKAGADVNAQDSWGTTPADLAAKYGHEDIAEVLQKAASGGGGGPQASTGRSGGGGGGSDLGKKLLQAARAGQLDEVRELLKAGADVNAKDAKGLTPLHLAAYHGHLEIVEVLLKAGADVNAKDVYGWTPLHIAAASGHLEIVEVLLKAGADVNAKDWLGWTPLHLAASAGHLEIVEVLLKAGADVNAQDKSGKTPADLAARAGHQDIAEVLQKAAGSHHHHHH
EC50 [4]: 0.353 nM
binding result [5]: no binding (tested: 100000 pM)

B13: CD3-PDD CL EGFR-C7v122-[Linker#2]-06E05v07-6His (designed binder)
chain: B12 chain with D216N, G219R, Q248R, E265Q
EC50 [4]: 0.41 nM
binding result [5]: no binding

B14: CD3-PDD NCL EGFR-C7v119-[NCL1]-06E05v07-6His (designed binder)
chain: B1 chain with A398W, H410A
EC50 [4]: 0.503 nM
binding result [5]: no binding (tested: 100000 pM)

B15: CD3-PDD NCL EGFR-C7v122-[NCL1]-06E05v07-6His (designed binder)
chain: B1 chain with D216N, G219R, Q248R, E265Q, A398W, H410A
EC50 [4]: 0.593 nM
binding result [5]: no binding

B16: anti-EGFR DARPin (biotinylated, monovalent EGFR-specific ankyrin repeat domain) (designed binder)
chain: MGSDLGYKLLRAAFHGQDDEVRILLAAGADVNAKDLIGQTPLHNAAWVGHLEIVEVLLKAGADVNAKDYYGNTPLHLAAHDGHLEIVEVLLKAGADVNAQDTWGETPADLATNAGHEDIAEVLQKAA
modifications: biotinylated (site not stated)
Kd [6]: 0.47 nM
koff [6]: 0.0002 s⁻¹
kon [6]: 420000 M⁻¹ s⁻¹
Kd [7]: 0.49 nM
koff [7]: 0.00032 s⁻¹
kon [7]: 640000 M⁻¹ s⁻¹
